Reference: patent US20160175440A1, “COMPOSITIONS AND METHODS FOR THE […] OF BURKHOLDERIA INFECTIONS” (Research Institute at Nationwide Children's Hospital, published 2016)

Biological target: Integration host factor (IHF alpha/beta heterodimer) (Escherichia coli, UniProt P0A6X7;P0A6Y1 SEQ:1-99,SEQ:1-94)
Assay: footprint; DNase I footprint at 50 nM IHF; hypersensitive site indicative of DNA bending
Details: tags: crystallographically pure IHF, gift of Howard Nash, NIH; no tag stated; label: 32P end label

Integration host factor (IHF alpha/beta heterodimer), sequence (P0A6X7 whole entry, chain 1 of 2): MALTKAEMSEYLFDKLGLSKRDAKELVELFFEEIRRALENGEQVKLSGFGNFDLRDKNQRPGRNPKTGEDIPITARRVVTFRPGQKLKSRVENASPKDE
Integration host factor (IHF alpha/beta heterodimer), sequence (P0A6Y1 whole entry, chain 2 of 2): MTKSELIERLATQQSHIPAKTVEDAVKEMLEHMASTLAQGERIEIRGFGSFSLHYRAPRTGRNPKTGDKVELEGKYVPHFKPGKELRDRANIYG

B1: 386 bp BCAL0339-BCAL0340 intergenic region (T6SS gene cluster upstream) (dsDNA)
DNA 1: TCTCAACGATTTA
DNA 2: TAAATCGTTGAGA
B1: binds.
